# Measurements taken from patent publication US20250163182A1 (Janssen / Centocor, published 2025).
# T1: human ENPP3 (human, UniProt O14638 46-875, limits assumed)
# T1 construct: neither the construct nor the method is stated; also called ectonucleotide pyrophosphatase/phosphodiesterase family member 3
# T1 sequence (looked up): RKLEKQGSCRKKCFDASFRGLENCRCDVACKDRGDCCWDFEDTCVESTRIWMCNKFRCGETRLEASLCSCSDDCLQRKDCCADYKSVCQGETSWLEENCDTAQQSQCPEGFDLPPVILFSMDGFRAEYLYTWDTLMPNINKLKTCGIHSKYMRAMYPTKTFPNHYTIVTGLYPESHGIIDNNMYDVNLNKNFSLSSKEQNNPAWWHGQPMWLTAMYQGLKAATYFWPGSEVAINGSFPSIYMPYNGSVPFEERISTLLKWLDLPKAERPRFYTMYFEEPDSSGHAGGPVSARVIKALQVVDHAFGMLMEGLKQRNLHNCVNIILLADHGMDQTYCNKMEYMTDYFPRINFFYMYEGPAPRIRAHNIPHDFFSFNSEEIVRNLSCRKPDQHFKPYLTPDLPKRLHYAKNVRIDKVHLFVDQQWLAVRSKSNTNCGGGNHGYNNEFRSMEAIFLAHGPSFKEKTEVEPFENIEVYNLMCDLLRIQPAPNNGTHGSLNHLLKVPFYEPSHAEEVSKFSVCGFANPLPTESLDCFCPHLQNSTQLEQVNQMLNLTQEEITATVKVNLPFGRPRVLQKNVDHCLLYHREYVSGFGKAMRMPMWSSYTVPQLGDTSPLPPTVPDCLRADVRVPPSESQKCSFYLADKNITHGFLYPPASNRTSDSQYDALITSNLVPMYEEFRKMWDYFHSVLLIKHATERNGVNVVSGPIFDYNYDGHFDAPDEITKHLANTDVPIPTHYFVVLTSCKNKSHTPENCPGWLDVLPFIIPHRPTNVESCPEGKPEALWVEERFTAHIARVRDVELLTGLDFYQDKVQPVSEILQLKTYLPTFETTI
# T2: cynomolgus monkey ENPP3 (cynomolgus monkey, UniProt A0A2K5TKP4 46-874)
# T2 construct: also called cyno ENPP3
# T2 sequence: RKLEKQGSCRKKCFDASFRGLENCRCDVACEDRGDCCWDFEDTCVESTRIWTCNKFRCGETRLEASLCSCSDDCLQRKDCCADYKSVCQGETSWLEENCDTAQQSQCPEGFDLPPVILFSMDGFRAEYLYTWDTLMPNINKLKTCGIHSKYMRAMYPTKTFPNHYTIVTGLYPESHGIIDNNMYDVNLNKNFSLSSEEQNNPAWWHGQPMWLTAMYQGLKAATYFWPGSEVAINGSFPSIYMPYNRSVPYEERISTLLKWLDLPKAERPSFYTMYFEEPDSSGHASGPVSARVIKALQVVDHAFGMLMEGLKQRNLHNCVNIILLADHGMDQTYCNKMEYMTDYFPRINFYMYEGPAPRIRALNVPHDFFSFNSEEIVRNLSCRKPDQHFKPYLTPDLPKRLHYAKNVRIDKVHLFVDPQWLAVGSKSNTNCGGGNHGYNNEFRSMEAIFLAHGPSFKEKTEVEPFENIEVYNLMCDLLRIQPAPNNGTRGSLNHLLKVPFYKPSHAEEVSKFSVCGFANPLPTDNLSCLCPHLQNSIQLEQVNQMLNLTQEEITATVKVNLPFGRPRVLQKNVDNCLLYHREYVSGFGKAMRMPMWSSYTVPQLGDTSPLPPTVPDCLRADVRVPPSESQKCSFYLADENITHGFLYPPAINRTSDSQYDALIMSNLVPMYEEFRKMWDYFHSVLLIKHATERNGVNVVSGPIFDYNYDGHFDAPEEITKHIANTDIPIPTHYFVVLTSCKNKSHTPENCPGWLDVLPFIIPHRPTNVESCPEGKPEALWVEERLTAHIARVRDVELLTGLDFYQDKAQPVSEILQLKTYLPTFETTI
# Tests used:
# human ENPP3 = target: T1, human ENPP3; experiment: binding affinity to human ENPP3; method not stated
# cynomolgus monkey ENPP3 = target: T2, cynomolgus monkey ENPP3; experiment: binding affinity to cyno ENPP3; method not stated; biphasic
Kd (human ENPP3),Kd (cynomolgus monkey ENPP3),Binder
0.129 nM,~1 nM,"NPP3B98 (antibody, V domains shown, mAb from Ablexis Kappa mice) VH: QVQLQESGPGLVKPSETLSLTCTVSGGSISNYYWSWIRQPAGKGLEWIGRIYASGSTNYNPSLKSRVTMSVDTSKNQFSLRLRSVTATDTAVYYCAREGYSSTLYDNAFDFWGQGTMVTVSS VL: DIQMTQSPSSVSASVGGRVTITCRASQGISTWLAWYQQKPGKAPKLLIYAASSLQSGVPSRFSGSGSGTDFTLTISSLQPEDFATYYCQQANSFPLTFGGGTKVEIK"
0.215 nM,~2 nM,"NPP3B56 (antibody, V domains shown, mAb from Ablexis Kappa mice) VH: EVQLVESGGGRVKPGGSLRLSCAASGFTFSDYSMNWVRQAPGKGLEWVSSISSISSYVKYADSVKGRFTMSRDNAKNSLFLQMNSLRDEDMAVYYCARGHYFDYWGQGTLVTVSS VL: EIVMTQSPATLSVSPGERATLSCRASQSVSSNLAWYQQKPGLAPRLLIYGASTRATGIPARFSGSGSGTEFTLTISSLQSEDFAVYYCQQYNNWPRTFGQGTKVEIK"
0.245 nM,~5 nM,"NPP3B86 (antibody, V domains shown, mAb from Ablexis Kappa mice) VH: QVQLVQSGAEVKKPGASVKVSCKASGYTVTNYYIFWVRQAPGQGLEWMGWINPNSGGTNYAQKFQGRVTMTRDTSINTAYMKLSRLGSDDTAVYYCARGGYSGYALSSHYGMDVWGQGTMVTVSS VL: EIVLTQSPGTLSLSPGERATLSCRASQSVSSSYLAWYQQKPGQAPRLLIYDASSRATGIPDRFSGSGSGTDFTLIISRLEPEDFAVYYCQQYDSSPLTFGGGTKVEIK"
0.0977 nM,,"NPP3B100 (antibody, V domains shown, mAb from Ablexis Kappa mice) VH: QVQLQESGPGLVKTSETLSLTCTVSGGSISSHYWSWIRQPPGKGLEWIGNIFYSGSTNYNPSLKSRVTMSVDTSKNHFSLKLISVTTADTAIYYCARHDHVWFDPWGQGTLVTVSS VL: not shown"
0.536 nM,~2 nM,"NPP3B64 (antibody, V domains shown, mAb from Ablexis Kappa mice) VH: QVQLVQSGAEVKKPGASVKVSCKASGYTFTTYYIHWVRQAPGQGLEWMGIINPSGGSTNYAQKFQGRVTMTRDTSTRIVYMELGSLRSEDTAVYYCARDYYYYYYGMDVWGQGTTVTVSS VL: DIVMTQSPLSLPVTLGQPASISCRSSQSLVRNGGYTYLNWLQQRPGQPPRLLIYQISNRFSGVPDRFSGSGAGTDFTLTISRVEAEDVGVYYCMQATQFPHTFGQGTKLEIK"
0.448 nM,~1 nM,"NPP3B60 (antibody, V domains shown, mAb from Ablexis Kappa mice) VH: QVQLVQSGAEVKKPGESLKISCKGSGYGFTNYWIGWVRQMPGKGLEWMGIIYPSDSNTRYSPSFQGQVTISADKSINTAYLQWSSLKASDTAMYYCTRQNYYYYTMDVWGQGTTVTVSS VL: DIQMTQSPSFLSASVGDRVTITCRASQVIRSYLAWYQQKPGKAPKLLIYGASTLQSGFPSRFSGSGSGTEFTLTISSLQPEDFATYYCQQLNSYPRTFGQGTKVEIK"
0.133 nM,~20 nM,"NPP3B107 (antibody, V domains shown, mAb from Ablexis Kappa mice) VH: EVQLVESGGGLVKPGGSLRLSCAASGFIFSDYSMNWVRQAPGKGLEWVSSISSGSSYIYYADSLKGRFTISRDNAKNSLYLQMSSLRAEDTAVYYCVRGLDYFDYWGQGALVTVSS VL: DIQMTQSPSFLSASVGDRVTITCRASQDISNYLAWYQQKPGRAPKLLIYVASTLQSGVPSRFSGSGSGTEFTLTISSLQPEDFATYYCQQLNSYPRTFGQGTKVEIK"
